{"source": "paper PMC12848304", "about": "“Small-molecule inhibitor of C‑terminal HSP90 dimerization modulates autophagy and functions synergistically with mTOR inhibition to kill cisplatin-resistant cancer cells” (Cell Death & Disease, 2025)", "proteins": {"B1": {"name": "recombinant HSP90α CTD (domain or fragment)", "chain": "not shown", "notes": "C-terminal domain (CTD) of heat shock protein 90 alpha (HSP90α; HSPC1/HSP90AA1); It says human (hHSP90) only of HSP90 in general and in the modelling; also called CTD r-HSP90α; HSP90 CTD; source: recombinant"}}, "target": "the molecule itself", "test": "cross-linking; HSP90α CTD (2 μM) in Na2HPO4 (25 mM; pH 7.4), incubated 1 h at room temperature with different concentrations of VWK147, then BS3 100 μM for 1 h at room temperature; 12% SDS-PAGE and Western blot with anti-HSP90 (AC88)"}
{"protein": "B1", "values": [{"measurement": "stoichiometry N", "result": 2}]}
